Assay results from article PMC4114562.

Biological target: rFKBP22 (a recombinant E. coli FKBP22) (Escherichia coli) (UniProt P0A9L3)
Assay: cross-linking; glutaraldehyde-mediated chemical cross-linking of rFKBP22 (bound/unbound with rapamycin) at 30°–85°C, analysed by SDS-13.5% PAGE

stoichiometry N: 2
Substance: rFKBP22 (a recombinant E. coli FKBP22) (from UniProt P0A9L3 1-206) (enzyme)
